Laboratory results reported in patent US20150211000A1 (GLYCOFI, published 2015).

Molecular target: T1, PCSK9 (Proprotein convertase subtilisin/kexin type 9) antigen, Alexa 647-conjugated (Pan troglodytes (Chimpanzee); Homo …, UniProt A8T644 31-152; Q8NBP7 153-692, Alexa 647-conjugated)
T1 construct: also called fluorophore-conjugated PCSK9 antigen; fluorophore-labeled PCSK-9 antigen
Assay: flow cytometry / FACS of Fab-displaying Pichia pastoris labeled with Alexa 647-conjugated PCSK9

T1 sequence (A8T644 31-152 limits assumed, chain 1 of 2): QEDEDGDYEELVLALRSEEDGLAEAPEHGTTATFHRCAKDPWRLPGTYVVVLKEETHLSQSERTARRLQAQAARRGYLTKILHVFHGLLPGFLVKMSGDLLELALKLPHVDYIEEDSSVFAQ
T1 sequence (A8T644 other isoform, or with tags, fused parts or gaps limits assumed, chain 2 of 2): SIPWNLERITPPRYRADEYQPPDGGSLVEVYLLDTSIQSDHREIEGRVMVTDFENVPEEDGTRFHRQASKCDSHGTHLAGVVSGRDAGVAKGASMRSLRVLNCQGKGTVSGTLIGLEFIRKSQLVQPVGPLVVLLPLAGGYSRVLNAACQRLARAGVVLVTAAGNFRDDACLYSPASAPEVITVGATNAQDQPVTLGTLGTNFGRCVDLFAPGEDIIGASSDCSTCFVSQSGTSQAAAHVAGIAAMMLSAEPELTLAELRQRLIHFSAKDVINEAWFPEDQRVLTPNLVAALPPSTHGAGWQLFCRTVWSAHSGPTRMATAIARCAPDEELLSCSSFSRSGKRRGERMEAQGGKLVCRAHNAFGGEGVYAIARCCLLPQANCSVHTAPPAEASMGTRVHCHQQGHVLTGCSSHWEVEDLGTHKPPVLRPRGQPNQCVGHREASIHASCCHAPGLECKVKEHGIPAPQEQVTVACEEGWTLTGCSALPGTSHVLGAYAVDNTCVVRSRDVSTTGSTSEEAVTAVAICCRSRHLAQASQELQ

binding result: no binding
B1: anti-CD20 (Genmab) Fab fragment, heavy chain fused to GR1 coiled coil peptide, displayed on Pichia pastoris strain YGLY7761 (Fab, V domains shown)
VH: AVQLVESGGGLVQPGRSLRLSCAASGFTFGDYTMHWVRQAPGKGLEWVSGISWNSGSIGYADSVKGRFTISRDNAKNSLYLQMNSLRAEDTALYYCTKDNQYGSGSTYGLGVWGQGTLVTVSS
VL: EIVLTQSPATLSLSPGERATLSCRASQSVSSYLAWYQQKPGQAPRLLIYDASNRATGIPARFSGSGSGTDFTLTISSLEPEDFAVYYCQQRSNWPLTFGGGTKVEIKR
notes: also called α-CD20; anti-CD20 Fab fragment Genmab; not shown: linker and tags of vector pGLY3958 between CH1 and GR1
